The nature of series [1]: kinetic analysis, non-endpoint assay at 23° C. In kind it is biochemical. The following applies: for Vmax 2,4-D / Km / Vmax Quizalofop: Table 10 series, unit as defined. From the text:
For the fifth screen, recombinant protein for each of the eleven engineered proteins was produced and purified for an in-depth biochemical analysis. This biochemical analysis included: (1) kinetic analysis (Vmax and Km), (2) activity assays over a range of temperatures, (3) protein melting analysis, (4) activity on additional AOPP herbicides substrates, and (5) mass spectrometry analysis on peptides to confirm identity. The biochemical analyses were also done with purified recombinant wild-type protein and MON-HT55 protein for comparison. For the kinetic analysis, a non-endpoint assay was conducted at 23° C. with either quizalofop-P or 2,4-D as substrate. The recombinant proteins for these assays were produced in bacteria and purified using a 6-His tag fused at the C-terminal end of the protein. Results of the kinetic analysis with either quizalofop-P or 2,4-D as substrate are presented for ten of the engineered proteins, wild-type protein, and MON-HT55 protein in Table 7 (standard error is shown in parenthetical). Vmax is expressed as specific activity, umol herbicide product mg enzyme-1 min-1; Km expressed as mM herbicide substrate. […] The differentiation of the protein kinetics for MON-HTI and MON-HT7 were surprising because there are only four amino acid differences between MON-HT1 and MON-HT7. Specifically, MON-HT1 has the following amino acids at the indicated position: 182; F105; T112; and V273, and MON-HT7 has the following amino acids at the indicated position: L82; V105; S112; and A273.
Kinetic analysis using a non-endpoint assay was conducted at 23° C. with either quizalofop-P or 2,4-D as substrate, as detailed above for purified protein of the wild-type enzyme, MON-HT1, MON-HT13, MON-HT15, and MON-HT17.

Series [2] is classed as physicochemical. The following applies: Table 11 series. As to the method:
A protein melting analysis was also conducted. For the protein melting determinations, purified enzyme was added to 96-well microtiter plates in standard storage buffer (30 mM Tris pH7.5, 150 mM NaCl) with or without 50 uM Fe2+ and 1.0 mM aKG. Protein unfolding was then detected with SYPRO® orange protein gel stain (Invitrogen™ catalog #S6651, Life Technologies, Grand Island, NY) in a BioRad CFX96™ Real time PCR machine (BioRad, Hercules, CA) with readings taken between 10° C. to 95° C. in 0.5° C. steps. […] In contrast, 50 uM Fe2+ and 1.0 mM aKG had little effect on the stability of any of the engineered proteins. MON-HT55, MON-HT3, MON-HT4, MON-HT6, and MON-HT10 had melting temperatures in the range of 41° C. to 48° C., which is below the melting temperature of the wild-type enzyme. MON-HT1, MON-HT2, MON-HT5, MON-HT7, MON-HT8, and MON-HT9 had melting temperatures between 58° C. and 67° C., which is 8° C. to 17° C. higher than the wild-type enzyme. For MON-HT7 and MON-HT1, the difference in melting point was 11° C. in buffer without Fe2+ and aKG and 8° C. in buffer with Fe2+ and aKG. This was surprising since there are only four amino acid differences between the two enzymes.
A protein melting analysis was conducted as detailed above. The melting temperatures of MON-HT13, MON-HT15, and MON-HT17 was similar to the melting temperature of MON-HT1 with T1/2 in buffer in the range of 55-58° C., and with T1/2 in buffer plus Fe2+ and aKG in the range of 60-62° C.

A short description of series [3]: enzyme activity assay at 23° C. with purified enzyme. In kind it is biochemical. The following applies: for activity with fluroxypyr as the substrate / activity with triclopyr as the substrate: not robust enough to quantify; for MCPA Km / MCPA Vmax / Mecoprop Km: percentage of wild-type RdpA, set at 100%. As to the method:
The enzyme activity of MON-HT protein variants with triclopyr, fluroxypyr, MCPA, MCPB, mecoprop, as substrates was determined using the enzyme activity assay conducted at 23° C. with purified enzyme. The activity was recorded as the maximum activity as a percentage of the wild-type RdpA enzyme's activity, which was set at 100%. […] The enzymatic activity with mecoprop as a substrate was reduced for each of the MON-HT1, MON-HT13, MON-HT15, and MON-HT17 variants compared to the wild-type RdpA enzyme. An unexpected result was that enzymatic activity with MCPA as a substrate was roughly 6-fold greater for MON-HT1, and approximately 10-fold greater for MON-HT13, MON-HT15, and MON-HT17 compared to the wild-type RdpA enzyme.

Series [4] deals with transgenic soybean plants. The series can be described thus: R0 soybean 2,4-D spray test of 2,4-D optimized variants. In kind it is in vivo. The following applies: for tolerance to 2,4-D treatment: 2× application rate, soy. From the text:
An additional five engineered proteins optimized for activity for 2,4-D were then selected for analysis in transgenic soybean. DNA constructs were produced for expressing MON-HT13 (SEQ ID NO:47), MON-HT14 (SEQ ID NO:48), MON-HT15 (SEQ ID NO:49), MON-HT17 (SEQ ID NO:51), and MON-HT18 (SEQ ID NO:52) with codon usage optimized for dicot expression. The operably linked expression elements (promoter, leader, intron, CTP, and 3′UTR) were identical in all of the constructs. Leaf samples were taken from R0 plantlets and single copy plants were identified using a PCR-based assay. When the single-copy R0 plants had approximately two to three trifoliate leaves, they were treated with either 1.5 lb ae/acre (2×) or 3.0 lb ae/acre (4×) of 2,4-D. Seven days after herbicide application, the plants were scored for herbicide injury based on the percent area of the plant showing injury, as indicated above.

Setting [5] is: 23° C., read-out: Km Quizalofop.
[6] abbreviates: 2,4-D rate 2X (1.5 lb ae/acre), single copy R0 soy, seven days after application.

Like-named read-outs stand apart in the source and are kept apart here.

B1: MON-HT13: engineered oxygenase protein, amino acid sequence SEQ ID NO:47 (protein)
chain: MHAALTPLTNKYRFIDVQPLTGVLGAEITGVDLREPLDDSTWNEILDAFHTYQVIYFPGQAITNEQHIAFSRRFGPVDPVPILKSIEGYPEVQMIRREANESSRYIGDDWHADSTFLDAPPAAVVMRAIEVPEYGGDTGFLSMYSAWETLSPTMQATIEGLNVVHSATKVFGSLYQATNWRFSGTSVKVMDVDAGDRETVHPLVVTHPVTGRRALYCNQVYCQKIQGMTDAESKSLLQFLYEHATQFDFTCRVRWKKDQVLVWDNLCTMHRAVPDYAGKFRYLTRTTVAGDKPSR
Consider B1, for which, in series [1], the “enzymatic activity with quizalofop compared with MON-HT1” value is reported as “roughly similar to the activity of MON-HT1” and the “Vmax 2,4-D” value is 3.38 (0.05) umol herbicide product mg enzyme-1 min-1. Moreover, in series [1] (read-out: Km 2,4-D), the Km – broadly, the substrate concentration at which the rate is half of its maximum – amounted to 80 µM. Further, the “Vmax Quizalofop” value in series [1] (23° C.) is recorded as 1.51 (0.05) umol herbicide product mg enzyme-1 min-1. In addition, the Km in series [1] (setting [5]) came out at 120 µM. For the same molecule, in series [2], the “Melting temp, Buffer” value turned out to be 57 °C; the “Melting temp, Buffer plus Fe2+ and aKG” value was found to be 62 °C. Further, in series [3], the “activity with MCPB as the substrate” value is on record as “no detectable activity”, the “enzymatic activity with MCPA greater compared to the wild-type RdpA enzyme” value is “approximately 10 fold”, the “activity with fluroxypyr as the substrate” value (from here on “activity with fluroxypyr”) was “detectable activity” and the “activity with triclopyr as the substrate” value is on record as “detectable activity”. In addition, in series [3], the “MCPA Km” value is given as 68%, the “MCPA Vmax” value turned out to be 1800% and the “Mecoprop Km” value worked out at 92%. Also, in series [4] (setting [6]), the “Events with 20-50% injury” value worked out at 1 and the “Events with <20% injury” value amounted to 12. In addition, the “tolerance to 2,4-D treatment” value in series [4] was “excellent tolerance”.

B2: MON-HT15: engineered oxygenase protein, amino acid sequence SEQ ID NO:49 (protein)
chain: MHAALTPLTNKYRHIDVQPLTGVLGAEITGVDLREPLDDSTWNEILDAFHTYQVIYFPGQAITNEQHIAFSRRFGPVDPVPILKSIEGYPEVQMIRREANESSRYIGDDWHADSTFLDAPPAAVVMRAIEVPEYGGDTGFLSMYSAWETLSPAMQATIEGLNVVHSATKVFGSLYQATNWRFSNTSVKVMDVDAGDRETVHPLVVTHPVTGRRALYCNQIYCQKIQGMTDAESKSLLQFLYEHATQFDFTCRVRWKKDQVLVWDNLCTMHRAVPDYAGKFRYLTRTTVAGDKPSR
Turning to B2, in series [1], the “enzymatic activity with quizalofop compared with MON-HT1” value is “roughly similar to the activity of MON-HT1” and the “Vmax 2,4-D” value was 3.53 (0.04) umol herbicide product mg enzyme-1 min-1. The Michaelis constant (Km) in series [1] (read-out: Km 2,4-D) worked out at 70 µM. In addition, in series [1] (23° C.), the “Vmax Quizalofop” value is 1.52 (0.06) umol herbicide product mg enzyme-1 min-1. For the same molecule, in series [1] (setting [5]), the Michaelis-Menten constant (Km) amounted to 120 µM. In addition, in series [2], the “Melting temp, Buffer” value turned out to be 55 °C; the “Melting temp, Buffer plus Fe2+ and aKG” value turned out to be 60 °C. Besides, in series [3], the “activity with MCPB as the substrate” value was “no detectable activity”, the “enzymatic activity with MCPA greater compared to the wild-type RdpA enzyme” value is reported as “approximately 10 fold”, the “activity with fluroxypyr” value is given as “detectable activity” and the “activity with triclopyr as the substrate” value is given as “detectable activity”. In addition, in series [3], the “MCPA Km” value is given as 59%, the “MCPA Vmax” value is 1300% and the “Mecoprop Km” value was found to be 57%. Further, in series [4] (setting [6]), the “Events with <20% injury” value was found to be 5. The “tolerance to 2,4-D treatment” value in series [4] is “excellent tolerance”.

B3: MON-HT17: engineered oxygenase protein, amino acid sequence SEQ ID NO:51 (protein)
chain: MHAALTPLTNKYRFIDVQPLTGVLGAEITGVDLREPLDDSTWNEILDAFHTYQVIYFPGQAITNEQHIAFSRRFGPVDPVPILKSIEGYPEVQMIRREANESSRYIGDDWHADSTFLDAPPAAVVMRAIEVPEYGGDTGFLSMYSAWETLSPTMQATIEGLNVVHSATKVFGSLYQATNWRFSNTSVKVMDVDAGDRETVHPLVVTHPVTGRRALYCNQVYCQKIQGMTDAESKSLLQFLYEHATQFDFTCRVRWKKDQVLVWDNLCTMHRAVPDYAGKFRYLTRTTVAGDKPSR
In the case of B3, in series [1], the “enzymatic activity with quizalofop compared with MON-HT1” value was “roughly similar to the activity of MON-HT1” and the “Vmax 2,4-D” value was 2.91 (0.04) umol herbicide product mg enzyme-1 min-1. The Km in series [1] (read-out: Km 2,4-D) came out at 70 µM. The “Vmax Quizalofop” value in series [1] (23° C.) was 1.53 (0.05) umol herbicide product mg enzyme-1 min-1. Besides, the Km in series [1] (setting [5]) came to 140 µM. Further, in series [2], the “Melting temp, Buffer” value stood at 57 °C; the “Melting temp, Buffer plus Fe2+ and aKG” value worked out at 61 °C. Besides, in series [3], the “activity with MCPB as the substrate” value is listed as “no detectable activity”, the “enzymatic activity with MCPA greater compared to the wild-type RdpA enzyme” value is listed as “approximately 10 fold”, the “activity with fluroxypyr” value is recorded as “detectable activity” and the “activity with triclopyr as the substrate” value is given as “detectable activity”. Also, in series [3], the “MCPA Km” value stood at 62%, the “MCPA Vmax” value is reported as 1400% and the “Mecoprop Km” value worked out at 65%. In addition, in series [4] (setting [6]), the “Events with <20% injury” value is given as 12. In addition, the “tolerance to 2,4-D treatment” value in series [4] was “excellent tolerance”.

The values above are taken from patent US12723255B2, “Herbicide tolerance genes and methods of use thereof” (priority 2014, dated 2026).
